# Assay results taken from publication PMC7347655, “Mutational analysis of the essential lipopolysaccharide-transport protein LptH of Pseudomonas aeruginosa to uncover critical oligomerization sites” (Scientific Reports, 2020).
# Residue numbers refer to the chain shown, from its start.
# B1: wild-type LptH (natural protein, Pseudomonas aeruginosa, UniProt Q9HVV7 25-175, looked up)
# chain: LPSDREQPIRVQADSAELDDKQGVAVYRGDVVVTQGSTKLTGNTVTLKQDKNGDIEVVTSVGKPAYYEQKPAPDKDVTKAYGLTIQYFVTQNRVVLIDQAKVIQEGNTFEGEKIVYDTQRQIVNAGRATGSQVTSPRPRIDMVIQPKKKAQ
# notes: Cloned NdeI/HindIII into pET28b; the vector's linker between the His tag and the protein is not described; no tag removal is described; also called LptH6His; PA4460; not shown: His6, N-terminal, kept
# B2: LptH_β15mut (natural protein)
# chain: B1 chain with V123E, N124P, A125D
# notes: not shown: His6, N-terminal, kept
# B3: LptH_β15del (natural protein)
# chain: LPSDREQPIRVQADSAELDDKQGVAVYRGDVVVTQGSTKLTGNTVTLKQDKNGDIEVVTSVGKPAYYEQKPAPDKDVTKAYGLTIQYFVTQNRVVLIDQAKVIQEGNTFEGEKIVYDTQRQIGRATGSQVTSPRPRIDMVIQPKKKAQ
# notes: As m1 with a 3-residue deletion in strand β15; aggregation prevented concentrations above 0.9 mg/mL; not shown: His6, N-terminal, kept
# Target: the molecule itself
# Assay: SEC; 100 uL of purified protein (0.9-2.0 mg/mL, a stated concentration for each variant) on a TSK-GEL G3000PWXL column, 20 mM Tris-HCl pH 8.0, 250 mM NaCl, 0.7 mL/min, detection at 280 nm; oligomerization state estimated from the apparent MW by a calibration curve
row,Protein,stoichiometry N
1,B1,2
2,B2,2
3,B3,2
